According to the DeepSol protein solubility set:

Assay: soluble on expression in E. coli; label from the status in PepcDB or PDB records

Sequence | soluble on expression in E. coli
MSLRDGKHIRTKLTPQKDRGESSYRIGLYIRDSAAGIGTMTFVHPDSMKYGALGHVISDNDTKKPIQVEDGQIMRSTVTSIERGSHGNPGEKLARFSPDREVIGNITINSPFGIFGKLNTNMTNGVMDKAMPIALSHQVKEGPAKILTVIDQDKVEAFDIEVVSTVPQKFPATKGMVIKVTDKRLLAKTGGIVQGMSGSPIVQNGKVIGAVTHVFVNDPTSGYGVHIEWMLHEAGINIYDQERKASEGHHHHHH | soluble
MSLRDHGAPYGAHTLAYRPSGELLLVRHEGVDMWVLPGGELDRGESFQEAALRELGEESGIEATIEGLGMLGRVEFYCDGNMAWGVLPVYEAQAETTDIAVDDPDHEISEAQWFDKLPADTRDREEILQWRGQRFSGREGHHHHHH | soluble
MSLREEIKVAVLRMEGTNCEDETVKAFRSLGVEAEAVHIKQFYSDMIRFEEQRSVFDYQCLVFPGGFSAGDYIRAGAIFSARVKSVLRKDIEEFIKMGYPILGICNGFQVLVELGALPGFDEDKPLAEKPEMALAMNDSSRFECRPTLLKKESEKCIFVKNLKKDVVMFPVAHAEGKVVFPSGKEDEYLERLTSNDQIVFRYVDEKGDYAGYPWNPNGSFYNIAGICNATHTVFGLMPHPERAFFGYQVGRREGYGDGYCIFRSVVDYLEEGHHHHHH | not soluble
MSLRESCKKDLSAGESIRKTRRISVMRSASGNETFGVICRTLYGDFIQFSTKQIVVMSTLFRSLSMSSSAGDSNLFTGNSALKNDSVVAGKPEWAQNSRRRVIPSHLAPKKKTGFHLSSSVSTRKSGGDKKDVFQAENGGEFNLLSFGTNQKRLGTGSFDRVNANSSFFDTSFAGDLTRFDDAVNSSKTQDDFLVYTNDEDMPPSRSIYDLNDEVLISLKSLQNNNEDKTSDANDPKNFRNIFVRDAPKASPSEDSNDQAKQLSNGELAILVFGYPETMANQVIAYFQEFGTILEDFEVLRKPQAMTVGLQDKQFVPIFSGNSWTKITYDNPASAVDALLENGAVFNGVLLGVIPYTKDAVERLQKRKLTSSEDIGSGITTAAAEGHHHHHH | soluble
MSLRFVDDEGHYNVSFFHVNDVHAHLDQFASSGTSCDDPEKGCYGGYARIKTKVTELREQYPDNLWLNAGDEFQGTLFYTYYGGEKIAETLNELKFDAMTLGNHEWDGGDEALGQFLLNLTFPIVSCNVKSEVESLNETIKNYHIFEEHEIAVIGATTTTTPGISSVGNTTTFLDPVAEVQKAVWQIRNETEVNRIILLSHLGYEEDQDLAAKTEGISLIIGGHSHTLLGDMEDAKGDYPTMVEDLNGHEVFIVTAYRWGEYLGAIDLTFDDDGHALAYHGAPIHMDNSTSLDEELDTKIQGWAEAFADFAAEVLGETDAVLVQETCQEGDCLLGQVMADAMYEYRYNQTEGTDDEPALALINSGGVRAEINEGPITRGEVLTAFPFGNAIVELEFSGADLRKILEGAVSYVNQFNGDEITSWFQVSRGVRIEFNPDNEPGDRLVNVTIQGEAIDDERDYRVVTLDFLAGGGDSIFVATDDFITLDTQDEVLTQYIVARTPLSPELEERVVENDGEGHHHHHH | soluble
MSLRIFKHQGCSAVKIRSTALVKGFRQSAPYVNAHRGKTMVVMLGGEAIADKNFPNIISDIALLHSLGVKVVLVHGARPQINQILEKNQRDTPYHKGVRITDESSLGLVMQAAGQLQHAITARLSMSLNNTPMAGTQLNVVSGNFIISQPLGIDEGVDYCHSGRIRRIDVEGINRMLDLGSIVLLGPIASSVTGECFNLLSEEVATQVAIKLKADKLIGFCPQQGIIDTKGNAIAELFPSDVERLVKSMEQECAPDDEECFSTMRFLRAALKACRAGVPRSHLVSYKEDGALIQELFSFDGIGTQIVMASAEQIRQATIDDIGGIFDLIRPLEEQGILVRRSREQLEQEIHKFTIIDKDGLVIGCSALYPYPEERMAEMACVAIHPEYRDGHRGLHLLVHSKHQAKQMGIRHLFVLTTHSTHWFREQGFNEVDVEALPMAKKSLYNYQRRSKILMLQLEGHHHHHH | not soluble
MSLRILAIDTATEACSVALWNNGTINAHFELCPREHTQRILPMVQEILAASGASLNEIDALAFGRGPGSFTGVRIGIGIAQGLALGANLPMIGVSTLATMAQGAWRKTGATRVLAAIDARMGEVYWAEYQRDAQGVWQGEETEAVLKPERVGERLKQLSGEWATVGTGWSAWPDLAKECGLTLHDGEVSLPAAEDMLPIASQKLAAGETVAVEHAEPVYLRNEVAWKKLPGKEEGHHHHHH | soluble
MSLRKFIDLHLHLDGSVPVSTVKKLMQEHDLPIPTDQELRQELSVDSSCKSLDQFLEKFALPNKLMQTRHDLETIVYDLLTELKAQGLVYAEIRFAPQLHTKEGLTQEDAIKAAISGLNKFLYDQKEKNDSPELHAGLILCLMRFSNNQKENIETVELAKKFLNKGVVGLDLAGAEGPIPNIKYKSFFNQAQQLGVPYTIHAGEADGPDSIRQALAMGAKRIGHGIRCTEDTQLTQELIDQQIVLECCATSNMNTKAFDQIDSYPIKKLLHKGMKVTLNSDDMTVSDTNLLHEYKVLEKRTDLTPEEETTLYLNAVDAAFTTPDEKIRLRAFLQKEGHHHHHH | soluble
MSLRKGIIAAGNMLVDHVHQIRQWPERGWLVEIVHSERATGGAPLNVLLTLAKMHAGLPLQAVGLIGEDNDGDYITAMLDQYHINRQLVQRTSSAPTSMTQVMTDAEGQRTFFHSPGANRLLDLPAFEPLDAPLKIFHLGYLLLLESLDRPDEVYGTRSARLLAQMRERGYEVSLDLVSRKGDPRYRPLVLPALKHLDYLTINELEASEFSGLEIRLPNGEPHVANIARAASALLDAGVRQRVVIHCPEGAWGVSRTEAGRWVPSWRLPPEEIIGSVGAGDAFCAGLLYGSHERWPLTASLQLAHACARASLQAANAIDGAKTLPELQAFIQLQNGEGHHHHHH | soluble
MSLRKPNEKTMKTKFCRTAVYCLCCFMFIQPITGSQVNDTHEGVLHIDKQKTRKVSRVQYGFHYEEIGMIGEGALHAELVRNRSFEEATPPADLAVKNGLYQNVPNPRGKNKDVFHVDPLIGWNTYPLSYTPIFISRTEENPLNKENKYSMLVNVTEDIANNPEAMILNRGYYGMNLRKEVSYHLSMYIKSKNYTALLQVMLVDEQGKPVSTQLVLDVKGKEWTKLTGTLKPDKDVKRGMLAIQPLGKGQFQLDVVSLFPSDTWDNGKSVFRADIMQNLKEYAPDFIRFPGGCIVHGVNEATMYHWKKTIGPIENRPGQWSKWAPYYRTDGIGYHEFYELCEYLGADAMYVIPTGMICTGWVKQSSPWNFIQPDVDLDAYIQDALDAIEYAIGPETSKWGALRVKNGHPKPFPLKYIEIGNEDFGPVYWERYEKIYQALHRQYPDLIYIANSIIGKENDDKRIDIAKFVNPKNVKVFDEHHYQPVEWACKQHYRFDNYERGIADLFVGELGIDGKYPYNLLASGAVRMSLERNGDLNPLLAERPVMRHWDFSEHRQLHSMLINGVDCSIRTSFYYLSKMFRDHTFDVCLDAGIQGMKGLQNVFVTMGYDSESKEYILKLINLRKQEVVLQTAVKGFGKKIQAQKITLSLEPGKNNTPEMPDAVKPVQSTVTLDLNKDLQLEASSMIVYRFKEGHHHHHH | soluble
MSLRKRIIEVSTDYKILIVDDEEGIINSMKVMLTRSGYFCMGISNPLEAIETLKKEHFDMLILDYIMSPIHGDEVVAKIREFNKDIYILLLTGHKDLAPPLETIKALDIQGYCEKGDKFDQLLLLIESGIKSISQMRTIRQFKDGLNRILQAVPKIYQLQPIGVILEEILQGLMPLVNSKDAFILVDDCNSGEGKIIFKGVGEYDIKAESLVTMLSPELMENIGRARDSKKVLLLDHGIILPLTNEQNKSIGVIYIESSNLGDGIKLLEIYSTQAASSINNAFLHSLINMKKEELDRTYQELRKRYIDTIEALRLTVDAKDIYTRGHSDRVAYYAVKLGEAFGLPEDQLELLKVGGIFHDIGKIGTADDILFKTDKLSYDEYEEIKKHPLKGAYILSAISMFKDVVPLVKYHHERIDGKGYPEGLKGDEIPFLARILTVADAFDAMMSDRKYRSKLSLEETKEQFRLYSGTQFDPQVVEKLFEILENYDLMLEELSKTFTEGHHHHHH | soluble
MSLRPRMIDWLQARNIGVAVSQSYLAPVVDRAARQEQYRRMVQRSEPLISAYMGVRLPQPIDRIYVFDRAEWIEANLAAFQSLFAPLEELYDEVSARQGMVGILIGQLNSQLIGMQVGALIGFLARRVLGQYDLGLLSPDPDLRGALYFVEPNIARICAQLGLNGDDFRMWIALHETTHVFEFEAFPWVRAYFQDLLRQFIGRVNDQAAMLSVGIVRLIERLLQGQPIDHHWIELMLTPEQREIFTRMQALMSVVEGYSNHIMNAIGAQLLPSYPSIEARVRQRQLRRPLIEEAFNRITGMDLKLAQYQQGEAFINAVVAACGADFANRIWERPENLPTMDEIRAPHRWIARMSGEGHHHHHH | soluble
